Reference: PMC10943538 (Plant Communications, 2023)

B1: His-MYB75 (natural protein, Arabidopsis thaliana, UniProt Q9FE25 1-248, looked up)
chain: MEGSSKGLRKGAWTTEEDSLLRQCINKYGEGKWHQVPVRAGLNRCRKSCRLRWLNYLKPSIKRGKLSSDEVDLLLRLHRLLGNRWSLIAGRLPGRTANDVKNYWNTHLSKKHEPCCKIKMKKRDITPIPTTPALKNNVYKPRPRSFTVNNDCNHLNAPPKVDVNPPCLGLNINNVCDNSIIYNKDKKKDQLVNNLIDGDNMWLEKFLEESQEVDILVPEATTTEKGDTLAFDVDQLWSLFDGETVKFD

Assays:
Test in all cases: pull-down
[1] = biological target: T1, EGL3-MBP (Arabidopsis thaliana, UniProt Q9CAD0 1-596)
T1 sequence (looked up): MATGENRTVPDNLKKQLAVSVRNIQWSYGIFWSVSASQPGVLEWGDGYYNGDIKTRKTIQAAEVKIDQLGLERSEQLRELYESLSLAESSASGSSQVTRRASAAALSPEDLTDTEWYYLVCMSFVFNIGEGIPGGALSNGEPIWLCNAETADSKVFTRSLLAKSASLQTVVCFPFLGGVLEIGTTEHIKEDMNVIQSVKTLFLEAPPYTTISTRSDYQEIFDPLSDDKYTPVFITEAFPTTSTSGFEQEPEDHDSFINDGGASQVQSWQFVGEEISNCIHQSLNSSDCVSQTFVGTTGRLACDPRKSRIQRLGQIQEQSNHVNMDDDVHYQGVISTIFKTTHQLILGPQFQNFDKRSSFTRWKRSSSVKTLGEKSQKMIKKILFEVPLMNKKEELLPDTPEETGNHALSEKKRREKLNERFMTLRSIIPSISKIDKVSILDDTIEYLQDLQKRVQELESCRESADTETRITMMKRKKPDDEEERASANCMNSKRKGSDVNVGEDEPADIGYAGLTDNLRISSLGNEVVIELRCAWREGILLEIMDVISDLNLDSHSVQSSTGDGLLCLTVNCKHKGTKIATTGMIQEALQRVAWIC

[2] = biological target: T2, TT8-MBP (Arabidopsis thaliana, UniProt Q9FT81 1-518)
T2 sequence (looked up): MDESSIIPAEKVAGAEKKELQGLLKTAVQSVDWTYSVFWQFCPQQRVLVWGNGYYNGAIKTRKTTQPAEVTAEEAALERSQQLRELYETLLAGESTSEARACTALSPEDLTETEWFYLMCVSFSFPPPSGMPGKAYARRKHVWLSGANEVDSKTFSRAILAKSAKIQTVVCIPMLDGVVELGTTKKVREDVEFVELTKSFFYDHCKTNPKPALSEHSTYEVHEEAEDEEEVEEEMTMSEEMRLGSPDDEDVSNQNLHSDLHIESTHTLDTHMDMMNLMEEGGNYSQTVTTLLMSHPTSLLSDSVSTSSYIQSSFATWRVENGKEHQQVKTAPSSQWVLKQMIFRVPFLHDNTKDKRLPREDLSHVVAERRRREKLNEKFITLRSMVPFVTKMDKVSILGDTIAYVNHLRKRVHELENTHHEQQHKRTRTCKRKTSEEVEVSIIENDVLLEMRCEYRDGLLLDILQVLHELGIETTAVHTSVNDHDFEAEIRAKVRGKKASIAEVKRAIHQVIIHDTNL

[3] = biological target: T3, MBP-MYB75 (Arabidopsis thaliana, UniProt Q9FE25 1-248)
T3 sequence (looked up): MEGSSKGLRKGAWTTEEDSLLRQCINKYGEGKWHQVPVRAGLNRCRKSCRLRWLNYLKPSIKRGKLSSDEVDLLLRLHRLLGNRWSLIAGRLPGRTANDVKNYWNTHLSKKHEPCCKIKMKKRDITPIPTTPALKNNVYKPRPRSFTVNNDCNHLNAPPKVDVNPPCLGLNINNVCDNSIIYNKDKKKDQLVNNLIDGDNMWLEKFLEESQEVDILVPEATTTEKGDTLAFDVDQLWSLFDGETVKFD

[4] = biological target: B1

Does B1 bind [1]?
Result: binds

Does B1 bind [2]?
Result: binds

B2: GST-MYB30^N (domain or fragment)
chain: not shown
Which results are given for B2?
binding result [3]: binds; binding result [4]: binds
